According to patent US11072647B2, “TGF-receptor II isoform, fusion peptide, methods of treatment and methods in vitro” (Onsejo Nacional DE Investigation Cientiticay Tecnica, priority 2013, dated 2021):

System: hASCs cells
Assay: Cytokine Array G5 of supernatants of lentivirally transduced hASCs
Assay type: cell-based, human
Parameters: key to IL-6* secreted by hASC / IGFBP-4 secreted by hASC / IL-7 secreted by hASC / LIF secreted by hASC / TNF-α secreted by hASC / FLT3-L secreted by hASC / SCF secreted by hASC / LIGHT secreted by hASC / IL-3 secreted by hASC / Oncostatin M secreted by hASC / FGF-7 secreted by hASC / FGF-9 secreted by hASC / Angiogenin secreted by hASC / BDNF secreted by hASC / NT-3 secreted by hASC / EGF secreted by hASC / NT-4 secreted by hASC / PIGF secreted by hASC / TIMP-1 secreted by hASC / GRO secreted by hASC / TIMP-2 secreted by hASC / CXCL1 (GROα) secreted by hASC / INF-γ secreted by hASC / CXCL6 (GCP-2) secreted by hASC / IL-2 secreted by hASC / CXCL9 (MIG) secreted by hASC / CXCL10 (IP-10) secreted by hASC / Osteopontin secreted by hASC / CXCL12 (SDF-1) secreted by hASC / Osteoprotegerin secreted by hASC / CXCL13 (BLC) secreted by hASC / CCL1 (I-309) secreted by hASC / Leptin secreted by hASC / CCL2 (MCP-1) secreted by hASC / CCL4 (MIP1b) secreted by hASC / GDNF secreted by hASC / CCL7 (MCP-3) secreted by hASC / IL-10 secreted by hASC / CCL8 (MCP-2) secreted by hASC / IL-13 secreted by hASC / CCL17 (TARC) secreted by hASC / IL-1α secreted by hASC / CCL18 (PARC) secreted by hASC / IL-1β secreted by hASC / CCL20 (MIP3a) secreted by hASC / CCL24 (Eotaxin-2) secreted by hASC / IL-12 p70 secreted by hASC / CCL26 (Eotaxin-3) secreted by hASC / IL-15 secreted by hASC / G-CSF secreted by hASC / IGF-1 secreted by hASC / M-CSF secreted by hASC / IGFBP-1 secreted by hASC / GM-CSF secreted by hASC / IGFBP-3 secreted by hASC / TNF-β secreted by hASC / Onc M secreted by hASC / VEGF secreted by hASC / CXCL5 (ENA-78) secreted by hASC / MIF secreted by hASC / CCL11 (Eotaxin) secreted by hASC / IL-5 secreted by hASC / TGF-β1 secreted by hASC: ↑: Increase or decrease of cytokines levels are referred to the levels secreted by cells transduced with the control vector Lt.eGFP; ↓: Increase or decrease of cytokines levels are referred to the levels secreted by cells transduced with the control vector Lt.eGFP; UC: unchanged levels with respect to cells transduced with the control vector Lt.eGFP; Abs: absent in mock transducer cells control; Abs: absent in mock transducer cells control
Procedure: Furthermore, the effect of TβRII-SE recombinant isoform was measured on a panel of 80 cytokines secreted by hASCs cells (FIG. 16). Cells were transduced with either control Lt-GFP, the TGF-β1 inhibitor Lt. TβRII-DN, or Lt-TβRII-SE and incubated in the presence or absence of exogenous TGF-β1. Collected supernatants were used to analyze the cytokines in a Cytokine Array G5 (Raybiotech, Inc. Norcross, USA).
Increase or decrease of cytokines levels are referred to the levels secreted by cells transduced with the control vector Lt.eGFP either in the presence (paracrine) or absence (autocrine) of exogenous TGF-β1. UC: unchanged levels with respect to cells transduced with the control vector Lt.eGFP. Abs: absent in mock transducer cells control. Dark grey boxes: decreased to undetected levels or absent in the supernatant of cells transduced with control vector Lt.eGFP.
A cytokine/chemokine array kit G5 (Ray Biotech Inc., Norcross, Ga.) was used to detect a panel of 80 secreted cytokines as recommended by the manufacturer. hASCs P7 untransduced or transduced with lentiviral vectors were grown for 72 h in a medium supplemented with 0.1% BSA. Supernatants were collected, filtered and frozen after collection. For densitometry analysis of the arrays, Typhoon 9410 Variable mode Imager (GE Healthcare Life Sciences) was used, and signal intensity values were measured using the Image analysis software ImageQuant TL 7.0 (GE Healthcare Life Sciences). Microarray data were analyzed with RayBio® Antibody Array Analysis Tool. Good data quality and adequate normalization were ensured using internal control normalization without background. Any ≥1.5-fold increase or ≤0.65-fold decrease in signal intensity for a single analyte between samples or groups may be considered a measurable and significant difference in expression, provided that both sets of signals are well above background (Mean background+3 standard deviations, accuracy≈99%).

[1] = Autocrine TGF-β1 (no exogenous TGF-β1), vs Lt.eGFP control
[2] = Paracrine TGF-β1 (3 pg/μl), vs Lt.eGFP control

B1: TβRII-SE: 80 amino acid soluble endogenous isoform of human TGF-β receptor II lacking the transmembrane domain, SEQ ID No. 2 (protein, listed as Homo sapiens)
chain: MGRGLLRGLWPLHIVLWTRIASTIPPHVQKSVNNDMIVTDNNGAVKFPQLCKFCDVRFSTCDNQKSCFSKVHYEGKKKAW
- OPG secretion (ASC, high TGF-β1 concentration, vs Lt.eGFP-transduced control cells): dramatic drop
- Angiogenin secreted by hASC [1]: UC
- BDNF secreted by hASC [1]: UC
- CCL1 (I-309) secreted by hASC [1]: UC
- CCL2 (MCP-1) secreted by hASC [1]: UC
- CCL4 (MIP1b) secreted by hASC [1]: UC
- CCL7 (MCP-3) secreted by hASC [1]: UC
- CCL8 (MCP-2) secreted by hASC [1]: ↑
- CCL17 (TARC) secreted by hASC [1]: UC
- CCL18 (PARC) secreted by hASC [1]: ↓
- CCL20 (MIP3a) secreted by hASC [1]: abs
- CCL24 (Eotaxin-2) secreted by hASC [1]: ↓
- CCL26 (Eotaxin-3) secreted by hASC [1]: abs
- CXCL1 (GROα) secreted by hASC [1]: UC
- CXCL6 (GCP-2) secreted by hASC [1]: UC
- CXCL9 (MIG) secreted by hASC [1]: UC
- CXCL10 (IP-10) secreted by hASC [1]: UC
- CXCL12 (SDF-1) secreted by hASC [1]: UC
- CXCL13 (BLC) secreted by hASC [1]: abs
- EGF secreted by hASC [1]: abs
- FGF-7 secreted by hASC [1]: ↓
- FGF-9 secreted by hASC [1]: UC
- FLT3-L secreted by hASC [1]: ↓
- G-CSF secreted by hASC [1]: ↓
- GDNF secreted by hASC [1]: UC
- GM-CSF secreted by hASC [1]: ↑
- GRO secreted by hASC [1]: UC
- IGF-1 secreted by hASC [1]: ↓
- IGFBP-1 secreted by hASC [1]: UC
- IGFBP-3 secreted by hASC [1]: ↓
- IGFBP-4 secreted by hASC [1]: abs
- IL-1α secreted by hASC [1]: ↓
- IL-1β secreted by hASC [1]: abs
- IL-2 secreted by hASC [1]: UC
- IL-3 secreted by hASC [1]: UC
- IL-6* secreted by hASC [1]: UC
- IL-7 secreted by hASC [1]: ↓
- IL-10 secreted by hASC [1]: UC
- IL-12 p70 secreted by hASC [1]: UC
- IL-13 secreted by hASC [1]: ↓
- IL-15 secreted by hASC [1]: abs
- INF-γ secreted by hASC [1]: ↓
- LIF secreted by hASC [1]: UC
- LIGHT secreted by hASC [1]: abs
- Leptin secreted by hASC [1]: ↓
- M-CSF secreted by hASC [1]: UC
- NT-3 secreted by hASC [1]: UC
- NT-4 secreted by hASC [1]: UC
- Oncostatin M secreted by hASC [1]: ↓
- Osteopontin secreted by hASC [1]: abs
- Osteoprotegerin secreted by hASC [1]: UC
- PIGF secreted by hASC [1]: ↓
- SCF secreted by hASC [1]: abs
- TIMP-1 secreted by hASC [1]: UC
- TIMP-2 secreted by hASC [1]: UC
- TNF-α secreted by hASC [1]: ↓
- Angiogenin secreted by hASC [2]: UC
- BDNF secreted by hASC [2]: Abs
- CCL1 (I-309) secreted by hASC [2]: abs
- CCL2 (MCP-1) secreted by hASC [2]: UC
- CCL4 (MIP1b) secreted by hASC [2]: abs
- CCL8 (MCP-2) secreted by hASC [2]: UC
- CCL11 (Eotaxin) secreted by hASC [2]: UC
- CCL17 (TARC) secreted by hASC [2]: UC
- CCL20 (MIP3a) secreted by hASC [2]: UC
- CCL24 (Eotaxin-2) secreted by hASC [2]: abs
- CCL26 (Eotaxin-3) secreted by hASC [2]: abs
- CXCL1 (GROα) secreted by hASC [2]: abs
- CXCL5 (ENA-78) secreted by hASC [2]: UC
- CXCL6 (GCP-2) secreted by hASC [2]: ↓
- CXCL9 (MIG) secreted by hASC [2]: ↓
- CXCL10 (IP-10) secreted by hASC [2]: ↓
- CXCL12 (SDF-1) secreted by hASC [2]: abs
- CXCL13 (BLC) secreted by hASC [2]: ↓
- EGF secreted by hASC [2]: ↓
- FGF-7 secreted by hASC [2]: Abs
- FGF-9 secreted by hASC [2]: UC
- FLT3-L secreted by hASC [2]: UC
- G-CSF secreted by hASC [2]: ↓
- GDNF secreted by hASC [2]: Abs
- GM-CSF secreted by hASC [2]: ↓
- GRO secreted by hASC [2]: UC
- IGF-1 secreted by hASC [2]: Abs
- IGFBP-1 secreted by hASC [2]: Abs
- IGFBP-3 secreted by hASC [2]: ↓
- IGFBP-4 secreted by hASC [2]: ↑
- IL-1α secreted by hASC [2]: ↓
- IL-1β secreted by hASC [2]: UC
- IL-2 secreted by hASC [2]: Abs
- IL-3 secreted by hASC [2]: ↓
- IL-5 secreted by hASC [2]: ↓
- IL-6* secreted by hASC [2]: UC
- IL-7 secreted by hASC [2]: ↓
- IL-10 secreted by hASC [2]: ↓
- IL-12 p70 secreted by hASC [2]: ↓
- IL-13 secreted by hASC [2]: ↓
- IL-15 secreted by hASC [2]: ↓
- INF-γ secreted by hASC [2]: ↓
- LIF secreted by hASC [2]: UC
- LIGHT secreted by hASC [2]: ↓
- M-CSF secreted by hASC [2]: abs
- MIF secreted by hASC [2]: UC
- NT-3 secreted by hASC [2]: ↓
- NT-4 secreted by hASC [2]: Abs
- Onc M secreted by hASC [2]: abs
- Osteopontin secreted by hASC [2]: ↓
- PIGF secreted by hASC [2]: ↓
- SCF secreted by hASC [2]: UC
- TGF-β1 secreted by hASC [2]: UC
- TIMP-1 secreted by hASC [2]: UC
- TNF-α secreted by hASC [2]: ↓
- TNF-β secreted by hASC [2]: ↓
- VEGF secreted by hASC [2]: UC
- HGF secretion upregulation (absence of exogenous TGF-β1): 7.65 times
- HGF secretion upregulation (presence of exogenous TGF-β1): 4.16 times
